Test results: the nanobody polyreactivity screen of Harvey et al. (2022)

Experiment: yeast display, Sf9 membrane polyspecificity reagent, FACS + sequencing; frameworks hold sequencing errors
Method in brief: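 Galactose-induced (36–48 hours) yeast carrying a synthetic nanobody display library were exposed to 10% biotinylated, detergent-solubilized Sf9 membrane reagent at 4 °C for 1 hour. FACS followed streptavidin microbead enrichment, using low and high (top ~1%) gates for expression (anti-HA) and reagent binding (streptavidin). Colony PCR, MiSeq 2 × 250 sequencing and CDR-length filtering followed. Labels for polyreactivity reflect the gate of origin.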

Sequence	polyreactivity (PSR sort gate)
QVQLVESGGGLVQAGGSLRLSCAASGSIFYNALGWYRQAPGKERELVASISWSGGTSTYYADSVKGLFTISRDNAKNTVYLQMNSMKPEDTAVYYCAKASRYSSYWMYYWGQGTQVTVSS	high polyreactivity
QVQLVESGGGLVQAGGSLRLSCAASGSILFGNAMGWYRQAPGKEMELVAAITVSGGSTYYADSVKGRFTISRDNAKNTVYLQMNSLKPEDTAVYYCAAVSLFRDSQFDYWGQGTQVTVSS	low polyreactivity
QVQLVESGGGLVQAGGSLRLSCAASGSTLYAYAMGWYRQAPGKERELVAAISFSTTSTYYADSVKGRFTISRDNAKNTVYLQMNSLKPEVTAVYYCAAEYWYYWEYEYWGQGTQVTVSS	high polyreactivity
QVQLVESGGGLVQAGGSLRLSCAASGSTFSTNAMGWYSPAPGKERELVAASTVSGGRTYYADSVKGRFTISRDNAKNTVYLQMNSLKPEDTAVYYCATDTSRLSIFGYVSFYYWGQGTQVNVSS	low polyreactivity
QVQLVESGGGLVQAGGSLRLSCAASGRIFSRYAMGWYRQAPGKERELVAAITRRGGSTYYADSVKGRFTISRDNAKNTVYLQMNSLKPEDTAVYYCAADGQWPWWLLRYDYWGQGTQVTVSS	high polyreactivity
QVQLVESGGGLVQAGGSLRLSCAASGLTFSYYAMGWYRQAPGKERELVAAISWSGGITYYADSVKGRFTISRDNAKNTVYLQMNSLKPEDTAVYYCAADGYPTLYDYWGQGTQVTVSS	high polyreactivity
QDQLVESGGGLVQAGGSLRLSCAASGFIFSSYAIGWYRQAPGKERELVAAITSGGSTNYADSVKGRFTLSRDNAKNTVYLQMNSLKPEDTAVYYCATVPGGSWFFHWWSTGGDDEYWGQGTQVTVSS	low polyreactivity
QVQLLESGGCLGLAGASLRLSCAASGSTFSTYAMGWYRPAPGKERELVAAITRRGGRTYYADSVKGRFTISRDNAKNTVYLQMNCLKPEDTAVYSCNVLSGLFVQAEYDYWGQGTKVTVSS	high polyreactivity
QVQLVESGGGLVQAGGSLRLSCAASGSIFQYYVMGWYRQAPGKERELDAAIRRSGTTYYADSVKGRFTISRDNAKNTVYLQMNSLKPEDTAVYYCNADSIYYYYLIEYEYWGQGSQVTVSS	low polyreactivity
QVQLLESGGGLVQAGGSLRLSCAASGRTFYFYVMGWYRQAPGKERELVARISWSGGSTYYADSVKGRFTISRDNSKNTVYLQMNSLKPEDTAVYYCNTVDSIPIGSGLYYYWGQGTQVTVSS	low polyreactivity
QVQLVESGGGLVQAGGSLRLICAASGRILSYYAMGWYRQAPGKERELVATINSGGSTNYADSVKGRFTISRDNAKNTVYLEMNSLKPEDTAVYYCAASPVWWYEYWGQGTQVNVSS	low polyreactivity
QVQLVESGGGLVQAVGSLRLICAPSGSIFGTNAMGWYRQAPGKERELVATISYGDGSTYYADSVKGRFTISRDNAKNTVYLQMNSLKPEDTAVYYCNTGVYSSGGPLDYWGQGTQVTVSS	low polyreactivity
QVQLVESGGGLVQAGGSLRLSCAASGRIFRYNAMGWYRQAPGKERELVATITSGGNTNYADSVKGRFTISRDNAKNTVYLQMISLKPEDTAVYYCNAAEPQWYDAYDYWGQGTQVTVSS	low polyreactivity
HVQLVESGGGLVQAGGSLRISCAASGFTFRYYAMGWYRQAAGKEMELVAAITSSGGRTYYADSVKGRFTISRDNAKNTVYLQMNSLKPEDTAVYYCNAAYGYVSRVYYLIEHDYWGHGTQVTVSS	high polyreactivity
QVQLVESGGGLVQAGGSLRLSCAASGSTYQGNAMGWYRQAPGKERELVAAISRSGGSTYADSVKGRFTISRDNAKNTVYLQMNSLKPEDTAVYYCAAYSGVGYLWFDYWGQGTQVTVSS	low polyreactivity
QVQLVESGGGLVQAGGSLRLSWAASGSNFDAYAMGWYRPAPGKERELVAAINARGGSTYYADSVKGRFTISRDNAKNTVYLQMNSLKPEETAVYDCNRLSRVRRYIYDYWGQGTQVTVSS	high polyreactivity
QVHLVESGGGLVQAGGSLRLSCAASGFTFNGYAMGWYRQAPGKESEMVAGITRRGGITYYADSVKGRFTISRYNAKNTVYLQMNSLKPEETAVYYCARDYIGHALIHHASLYYYWGQGTQVTVSS	high polyreactivity
QDQLVESVGGIVQAGGSLRLRCAASGFIYSRNAIGWYSEAPGKDREFVARIRWSVGSTYYADSVKGRFTISRENAKNTVYLMMTSLKPEVTAVYSCAADYYKRYKYLYDYWGQGTQVTVSS	high polyreactivity
QVQLVESGGGIVQAGGSLRLSCAASGRIFLTNAMGWYRQAPGKERELVAAITSGGSTYYADSVKGRFTISRDNAKNTVYLQMNSLKPEDTAVFYCNADTDRYWPYEYDYWGQGTQVTVSS	low polyreactivity
QVQLVESGGGLVQAGGSLRLSCAASGSTFVQYAMGWYRQAPGKERELVAAISGSGGRTYYADSVKGRFTLSRDNAKNTVYSHMNSLKPEDTAVYYCAAAYNTDFYYWGQGTQVTVSS	high polyreactivity
QDQLVESGGGLVQAGGSLRLSCAASGSIFYYYVMGWYRQETGKEREFVAAISWGGDSTYYADSVKGRFTISRDNAKNTVYLQMNSLKTEDTAVYYCKADYPWSVLAYDYWGQGTQVTVSS	low polyreactivity
QVQLVESGGGLVQAGGSLRLSCAASGSIFYENTMGWYRQAPGKEREFVAAISRSGGSTYYADSEKGRFTISRDNAKNTVYLQMNSLKPEDTAVYYCAAKSRRYHHEYYYWGQGTQVTVSS	high polyreactivity

Sequence	polyreactivity (PSR sort gate)
QVQLVESAGGLVQAGASRRLSCAASGRTVSLYTMGWSRQSPGKESELVASITSSGSTSYADSVKGRFTISRDNAKNTVYLQMNSLKPEDTAVYYCNAAVSYPKYPYVSPGVPSYDYWGQGTQVTVSS	low polyreactivity
QVQLEESGGGLVQAGGSLRLSCAAAGINFTYYAMGWYRQAPGKERELVAAISYRGGSTYADSVKGRFTISRDNAKNTVYLPMNSLKPEDTAVYYFAADSPVPDSGEGYWGQGTQVTVSS	high polyreactivity
QVQLVESGGGLVQAGGSLRLSCAASGSILSYYAMGWYRQAPGKERELVAAISKSGGRTYYADSVKGRFTISRDNAKNTVYLQMNRLKPEDTAVYYCAAPATYKYDYWGQGTQVTVSS	high polyreactivity
QVQLVESGGGLVQAGGSLRLSCAASGSTFYIYAMGWYRQAPGKERELVAVITRRGGSTSYADSVKGRFTISRDNAKNTVYLQINSLKPEDTAVYYCAAKRTWPDVKYIRYGYWGQGTQVTVSS	high polyreactivity
QVQLVESVGGLVQAGGSLRLSCAASGNTFYAYAMGWYRQAPGKERELVAAIRKSGGNTYYADSVKGRFTISRYNAKNNVYLQMYSLKPEDTAVYYCAARYRGYAFLNYDYWGQGTQVTVSS	low polyreactivity
QVQLVESGGGLVQAGGSLRLSCAASGFTFFTYAMGWYRQAPGKERELVAAITSGGSTNYADSVKGRFTISRDNAKNTVYLQMNSLKPEDTAVYYCATRAYSDATTFYGYQRSDSWGQGTQVTVSS	low polyreactivity
QVQLVESGGGLVQAGGSLRLICAASGSIFGYYAMGWYRQAPGKERELVAGITNSGDTNYADSVKGRFTISRDNAKNTVYLQMNSLKPEDTAVYYCAADGSYQYYYWGQGTQVTVSS	low polyreactivity
QVQLQESGCGLVQVGGSLRLSCAASGTTFIYGFLGWNRQAPGKERELVASINLGGFTNYADSVKGRFTISRDNAKNTVYLQMISLNPEDSAVFYCAAYVVTGQNYGYWGKGTQVTVSS	low polyreactivity
QVQLVESGGGLVQAGGSLRLTCAASGSIFGLYAMGWYRHAPGKERELVAAISRTGGSTYYADSVKGRFTISRDNAKNTVYLQMNSLKPEDTAVYSCNAVYFRYRYNYWGQGTQVTVSS	high polyreactivity
QVQLVESGGCLVQAGGSLRLRCAASGSTFDDNVKGWYRPAPRKDRELVAAISSSGGSTYYADSVKGRFTISRDNAKNTVYLQMNSLKPEDTAVYYCNAVYFGLWGYYSRRSYNYWGQGTQVNVSS	low polyreactivity
QVQLVESGGGLVQAGGSLRLSCAASGRIFRYNAKGWYRQAPGKERELVAAISRDGSTYYADSVKGRFTISRDNAKNTVYLQMKSLKPEDTAVYYCAAGYSRRGWRRAYNYWGQGTQVTVSS	high polyreactivity
QVQLVESGGGLVQAGGSLRISCAASGRIFFTNAMGWYRQAPGKDRELVAAISKSGARTYYADSVKGRFTISRDNAKNTVYLQMNSLKPEDTAVYYCSEFYYWGQGTQVTVSS	high polyreactivity
QVQLVESGGGIVQAGGSLRLSCAASGRIFDEYAMGWYRLAPGKERELVAAITYSAGSTYYADSVKGRFTISRDNAKNTVYLQMNSLKPEDTAVYYCAADRYYWWWYTYNYWGQGTQVTVSS	low polyreactivity
QVQLVESGGGLVQAGGSLRLRCAASGGTFYYYAMGWYRQAPGKERELVAAISTSGTSTYYADSVKGRFTISRDNAKNTVYLQMNSLKPEDTAVYDCAARGLRVSSRGYYWGQGTQVTVSS	high polyreactivity
QVQLVESGGGLVQAGGSLRLSCAASGSTFGLNVMGWYRQAPGKEREFVAGISRSGGRTYYADSVKGRFTISRDNAKNTVYLQMNSLKPEDTAVYYRAADYWTGITPDAIGDYWGQGTQVTVSS	low polyreactivity
QVQLVESGGGLVQAGGSLRLSCAASGITFNGYTMGWYRQAPGKEREFVAAITRRGGSTYYADSVKGRFTISRDNAKNTVYLQMNSLKPEDTAVYYCARVTRLGGGDYDYWGQGTQVTVSS	high polyreactivity
QVQLVESGGGLVQAGGSLRLSCAASGSTFRVYAMGWYRQAPGKERELVANISWGGGRTYYADSVKGRFTISRDNAKNTVYLQMNSLKPEDTAVYYCAADIAWYTHYHRIFDYWGQGTQVTVSS	low polyreactivity
QDQLVESGGGLVQAGGSLRLSCAASGSNFGPYAMGGYRHAPGKERELVARISGGGSTYYADSVKGRFTISRDNAKNTVYLQMNSLKPEDTAVYYCNVRNWAYWSHAIIYNYWGQGTLVTVSS	high polyreactivity
QVQLVESGGGLVQAGGSLRLTCAASARTFFGYAMGWYRQAHGKARELVARIRWSTTYYADSVKGRFTISRDNAKNTVYLQMNSLKPEDTAVYYCNAVYYYVGYRYDYWGQGTQVTVSS	high polyreactivity
QVQLVESGGGLVQAGGSLRLSCAASGFIFYANAMGWYRQAPGKERELVAAITWSGSRTYYADSVKGRFTISRDNAKNTVYLQMNSLKPEDTAVYYCNKDWYVGSFGYPEDYWGQGTQVSVSS	low polyreactivity
QFQLVESGGGLVQAGASLRLSCAASGRIFEIYAMGWYRQAPGKDRELVAASSWRGVSTYYADSVKGRFTITRDNAKKTVYLQMNSLKPEDTAVYYCNKDVDYFWYVEYDYWGHGTQVTVSS	low polyreactivity
